These results are taken from article PMC4279225 (Molecular Biology of the Cell, 2015).

Data set [1] has as its target T1, Recombinant wild-type septin complex Pnut-Sep2-Sep1 (His tag removed) (Drosophila melanogaster, UniProt P40797 1-539; P54359 1-419; P42207 1-361).
T1 sequence (looked up) 1: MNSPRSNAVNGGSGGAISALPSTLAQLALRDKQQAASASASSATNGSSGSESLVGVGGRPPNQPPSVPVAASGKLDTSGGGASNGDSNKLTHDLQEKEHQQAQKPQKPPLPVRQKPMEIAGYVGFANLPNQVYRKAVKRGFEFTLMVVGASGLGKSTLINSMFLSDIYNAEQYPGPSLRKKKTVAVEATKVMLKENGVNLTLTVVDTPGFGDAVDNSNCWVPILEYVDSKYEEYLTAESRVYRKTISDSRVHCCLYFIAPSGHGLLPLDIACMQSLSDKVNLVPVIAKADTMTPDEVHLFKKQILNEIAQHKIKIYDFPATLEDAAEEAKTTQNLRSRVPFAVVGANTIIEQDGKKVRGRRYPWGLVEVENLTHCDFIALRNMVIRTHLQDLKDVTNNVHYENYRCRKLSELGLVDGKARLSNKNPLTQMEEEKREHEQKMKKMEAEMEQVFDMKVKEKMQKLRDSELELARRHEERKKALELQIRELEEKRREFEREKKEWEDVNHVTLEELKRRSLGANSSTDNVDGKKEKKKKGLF
T1 sequence (looked up) 2: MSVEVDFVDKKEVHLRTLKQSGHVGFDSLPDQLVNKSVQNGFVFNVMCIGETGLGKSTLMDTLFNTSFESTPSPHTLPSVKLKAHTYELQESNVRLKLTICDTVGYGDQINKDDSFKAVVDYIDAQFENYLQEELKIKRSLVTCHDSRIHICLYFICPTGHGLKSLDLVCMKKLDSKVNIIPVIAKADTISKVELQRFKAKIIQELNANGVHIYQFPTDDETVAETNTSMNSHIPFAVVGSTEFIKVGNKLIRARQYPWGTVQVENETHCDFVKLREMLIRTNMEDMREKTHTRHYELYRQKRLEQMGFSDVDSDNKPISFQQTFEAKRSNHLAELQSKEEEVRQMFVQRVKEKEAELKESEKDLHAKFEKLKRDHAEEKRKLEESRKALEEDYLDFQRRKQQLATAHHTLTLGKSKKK
T1 sequence (looked up) 3: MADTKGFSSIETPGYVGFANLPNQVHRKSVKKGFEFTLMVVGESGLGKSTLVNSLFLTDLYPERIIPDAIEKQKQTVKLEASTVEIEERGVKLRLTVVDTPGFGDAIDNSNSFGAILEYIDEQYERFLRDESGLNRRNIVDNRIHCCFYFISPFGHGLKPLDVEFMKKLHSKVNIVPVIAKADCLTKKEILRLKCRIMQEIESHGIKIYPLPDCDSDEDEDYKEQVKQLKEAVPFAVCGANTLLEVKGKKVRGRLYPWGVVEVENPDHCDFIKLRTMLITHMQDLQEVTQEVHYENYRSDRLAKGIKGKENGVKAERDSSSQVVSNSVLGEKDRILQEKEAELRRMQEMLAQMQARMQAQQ
As to the kind of experiment: negative-stain EM with Ni-NTA Nanogold labelling.

The data set “SEC” deals with the molecule itself. As to the kind of experiment: SEC. (In general: In gel filtration, larger molecules generally elute earlier.)
A further data set addresses T2, GST-Orc6, wild type (Drosophila, UniProt Q9Y1B2 1-257).
T2 sequence (looked up): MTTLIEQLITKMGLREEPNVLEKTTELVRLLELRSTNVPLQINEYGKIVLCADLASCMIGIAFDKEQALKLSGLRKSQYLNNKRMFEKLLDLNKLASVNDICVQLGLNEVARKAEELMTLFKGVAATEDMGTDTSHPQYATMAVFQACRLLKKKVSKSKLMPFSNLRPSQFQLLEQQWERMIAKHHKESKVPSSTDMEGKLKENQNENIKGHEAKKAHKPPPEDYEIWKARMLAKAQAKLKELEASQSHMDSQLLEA
Kind of data set: pull-down.

The target of the next data set is T3, His-GFP-Orc6, wild type (Drosophila, UniProt Q9Y1B2 1-257).
T3 sequence (looked up): T2 sequence (looked up)
Kind of data set: fluorescence polarisation.

As usually defined, the stoichiometry N is the number of molecules, sites or subunits per partner or assembly.

B1: His-Orc6 Δ(1–186), N-terminus deletion (domain or fragment, Drosophila, UniProt Q9Y1B2 187-257, looked up)
chain: KESKVPSSTDMEGKLKENQNENIKGHEAKKAHKPPPEDYEIWKARMLAKAQAKLKELEASQSHMDSQLLEA
In the case of B1, in data set [1], the binding result was “binds”.

B2: His-Orc6 Δ(200–257), Orc6 with truncated C-terminus (domain or fragment, Drosophila, UniProt Q9Y1B2 1-199, looked up)
chain: MTTLIEQLITKMGLREEPNVLEKTTELVRLLELRSTNVPLQINEYGKIVLCADLASCMIGIAFDKEQALKLSGLRKSQYLNNKRMFEKLLDLNKLASVNDICVQLGLNEVARKAEELMTLFKGVAATEDMGTDTSHPQYATMAVFQACRLLKKKVSKSKLMPFSNLRPSQFQLLEQQWERMIAKHHKESKVPSSTDMEG
As to B2, the binding result in the data set “SEC” is on record as “binds”; with GST-Orc6, wild type, “binds”; in the data set with His-GFP-Orc6, wild type, “binds”.

B3: His-Orc6, wild type, Orc6-wt (1–257) (natural protein, Drosophila, UniProt Q9Y1B2 1-257, looked up)
chain: T2 sequence (looked up)
Turning to B3, the “stoichiometry N” value in the data set “SEC” was 2; in data set [1], 2.26 ± 0.34 Nanogold particles (His-Orc6 molecules) per septin hexamer.
